# The DeepSol protein solubility set
# Assay: soluble on expression in E. coli; label from the status in PepcDB or PDB records
row,Sequence,soluble on expression in E. coli
1,MPSVFEAKGLPSLGPPVSNWGTNQPGTGVARNTRREKLGLWSAVALQQHFTATGGRGGLPLPLSSSALPSQEDRGTAAALGDNAGFSSGAVSSDLRSHLGPAPSLAGRLHKPTLAQRMGLVPGPTPPPSADDWRVITHRALQREHRHARDAGSPGANPSICPICQMSYSTNCDEGQVILSCSHVFHARCFRSFERYVRAQQRADALRIGEVSAPLACPVCRTQSYYKRIFYEGKAVAQRAAIVKVQAAVRGLLARRAYIKIKLQNNPEFRTRYVQERLARLSAAWQTFCAEQEQRRAGLQTALTVQQEMARAAFLSEEAWAEIWRKAVHGPSTSSEPGSSAAPSTAGASVQCPICLELIHCSQCPGTGAAASHAGGVRRLTGKDAVAAMWAAYEARKVAKRLPSVEPKAARASAGALVRSAVKGAAQRKTGNSLTPMPGAVASVRDGKVASSRAPEHRAGRQKGFAQPTAAAPWPEHANAFAALSSAPGVDAVGAHEAAVVLPQSGILLSCGHCFHAACIDCYERFHERRCLDMVEQDGGAVVAFPSRCPVCRSGYAKHPM,not soluble
2,MPTIKDYYLPKRPTLLFSLHPEPTQAIINGTKILEYRRRFFARPFQAFVYTTGDNGGIQLFLRCDQGLQLVPEQLALVGALLQHDAPTTTAAYFEGAKAGLALPITAFTTLPNIPLAQLRRQFENFVTPRSYVFLDQPDRQAQLDWLLTQPCESLTILDWRKRYAALATLLQKLEHHHHHH,not soluble
3,MPTKANTQRNWTIMVYLAGDNNLDSAGVVDLKEMKTVGTTDKIAVLAQFDRAGAKQATIRYCLKQGTPLAKDAVQSLGETNMGDPKVLEDFVTWGVANYPADHYLLVLWNHGAGWDDANLYQGDVFSGAAPPVSRKAQPVATRGATAGAKAIPLAQARAGIRRARRALFSTTVEAAIKQRGIAFDDQAQDFLDNIELKRVLTAIKKKLKRKIDIVGMDACLMSMAEVAYQMRDVADYSVGSEETEPGDGWPYDRILKALAAKPAMTPEELSKTIVAQYLASYKATENVTQSAMKLLALNPLATAVDGMAKALTGILGDTAARTALINARSQVQEYSRPYDDYCDLLDLCDLIGKGVASPAVKTACAKVKDAAAAAIVAAGYKGTGVDNSGGISIYFPKRKLSPLYKTLDFTKKTAWDEFLAAYLAGLGRLEHHHHHH,soluble
4,MPTNVTAEYLAAEEEYRNAKTIPEKIRALEKMYALVPKHKGTEKLRLQIKRRLAELRRELEKQRQQRKGGGYSLAVKKEGAAQIVLVGLPNVGKSELLRALTGVDVESADYPFTTTEPVPAMMNYKDVQIQLVEVPGLLEGAALGKGMGPQLLAVIRNADAIAIVIDLSEDPIKQMEILLREFERAGIKVNKRRPRVEIRKTPSGGIVINGAENIKGDLSEVMRMLREEKIHSAEITVKEPVTLEEFADALDDSLVWKKAIIIANKGDSPGSKENYHKLINKYGEKFKIVPVSAKKRINLEAVKEAIYDVAEIIRVFTKSPGEEPAYPPIALKRGATVMDVAERIHKDLVKNFRYARVWGKSVKFPGQRVGPDHVLEDGDIVEIHAK,soluble
5,MPTVRVKEGENPEYALRRFKRSCEKAGILTELRRREFYEKPTAERKRKQAAAVKRHLKKISRDVSSRRGVGHRRKKSTTLEHHHHHH,not soluble
6,MPTYKLSYFDVRAYAEPARILFHLAGVPFDDHRFPHGDGTWEKLKDKTPFGQVPVLYVDGFEIPQSAAIIRYLANKFGYAGKTPEEQAWADAIVDQFKDFMSLFREFKLAQKAGKSDVEIAKVASEVAIPARDSYFEIITNLLEKSKSGFLVGDGLTFADIVVVESLTNLEKVHFFDASEHPKLAALREKIYAIPAIKSWVDIRPDTIY,not soluble
7,MPVAHVALPVPLPRTFDYLLPEGMTVKAGCRVRVPFGKQQERIGIVVSVSDASELPLNELKAVVEVLDSEPVFTHSVWRLLLWAADYYHHPIGDVLFHALPILLRQGRPAANAPMWYWFATEQGQAVDLNSLKRSPKQQQALAALRQGKIWRDQVATLEFNDAALQALRKKGLCDLASETPEFSDWRTNYAVSGERLRLNTEQATAVGAIHSAADTFSAWLLAGVTGSGKTEVYLSVLENVLAQGKQALVMVPEIGLTPQTIARFRERFNAPVEVLHSGLNDSERLSAWLKAKNGEAAIVIGTRSALFTPFKNLGVIVIDEEHDSSYKQQEGWRYHARDLAVYRAHSEQIPIILGSATPALETLCNVQQKKYRLLRLTRRAGNARPAIQHVLDLKGQKVQAGLAPALITRMRQHLQADNQVILFLNRRGFAPALLCHDCGWIAECPRCDHYYTLHQAQHHLRCHHCDSQRPVPRQCPSCGSTHLVPVGLGTEQLEQTLAPLFPGVPISRIDRDTTSRKGALEQQLAEVHRGGARILIGTQMLAKGHHFPDVTLVALLDVDGALFSADFRSAERFAQLYTQVAGRAGRAGKQGEVVLQTHHPEHPLLQTLLYKGYDAFAEQALAERRMMQLPPWTSHVIVRAEDHNNQHAPLFLQQLRNLILSSPLADEKLWVLGPVPALAPKRGGRWRWQILLQHPSRVRLQHIINGTLALINTIPDSRKVKWVLDVDPIEG,soluble
8,MPVIKDAVCSLCGSLCDDITVTVEDNKITKIENACILGHSKFVGMFEHDRIETPMVRKDGELVPVSYEEAIEAAAKILVNSRRTLSYGWCSTSCEAVSGAIQLAEETGSIIDSTANVCHGPTALAAQEKGSPSASLGEIKNRADVIVFWGCNPVHAHPRHMSRYSSFSKGFFTEKGRKGRKMVVIDVRKTDTAKIADKYVEIEQGSDLLLVTALRSIVNGHEDVVPETVAGVPKAEVLELAETLKNAKFTCIFFGMGVTQSRSKYKNGDAVSSLISDLNQHTKAVMIGMRGHYNVTGFGQVATWETGFPMAIDFSRGYPYYNPGETGANDLLVREEPDAAIIAAADAGAHFPQKAVRHLARIPVIQIDPYANPTTEIADVVIPAAVVGIEAEGTAYRMDAISLRMKKLIDTEFKTDEEIVKDLTAKVREMKRGV,not soluble
9,MPVIPKSGRLAAVGVLGRIVDVLMRLSLLIRGAVPGGVAAAAATRYRDRIDTGTTATYYGRVVREGGYVVLQYWFFYAMNDWRSVYGGVNDHEADWEKVTVYLVEEENGEYRPVWVGASSHEYLGDDLRRRWDDPELHRDGNHPIIYVGAGSHSHQMLPGDYLIQVDPAFLRGVLRAWRRFTARFLPSSSRLRGIGVPFVDYARGDGVRVGPGGERTWTPVLIDDTTPWVRGYRGLWGRNTRDWFDGERAPSGPRYERLEHHHHHH,soluble
10,MPVKPASPRSHPGCPELTHERYCDAQAKAEDARYRKYQRDPKINRRYGSRWRKIRAAYVAAHPLCEDCLEAGRYTPVQEVHHVLPIEHGGTHNFDNLQSLCKPCHSRQSALDDDRWRQQPRVYTYLEHHHHHH,soluble
11,MPVKRSLKLDGLLEENSFDPSKITRKKSVITYSPTTGTCQMSLFASPTSSEEQKHRNGLSNEKRKKLNHPSLTESKESTTKDNDEFMMLLSKVEKLSEEIMEIMQNLSSIQALEGSRELENLIGISCASHFLKREMQKTKELMTKVNKQKLFEKSTGLPHKGQPQMSQPLLEHHHHHH,soluble
12,MPVRKAKAVWEGGLRQGKGVMELQSQAFQGPYSYPSRFEEGEGTNPEELIAAAHAGCFSMALAASLEREGFPPKRVSTEARVHLEVVDGKPTLTRIELLTEAEVPGISSEKFLEIAEAAKEGCPVSRALAGVKEVVLTARLV,soluble
13,MPVTEVGSLPELNNILERSDANRLIIIDFFANWCGPCRMISPIFEQFSAEYGNATFLKVNCDVARDIVQRYNISAMPTFIFLKNRQQVDMVRGANQQAIAEKIRQHYSPTPANPNAASDSEKRFLEQFVKCSNVPRSYQDEVFKALARSVMPEELVGRAMTEGPRDEKAILKDLLHWFKTQFFTWFDRPTCPKCTLKCSTDGLQGTPTREEQKEGGASRVEVYICDGCNTEMRFPRYNNPAKLLQTRTGRCGEWANCFGLLLAALNLESRFIYDTTDHVWNEVYLLAEQRWCHVDPCENTMDRPLLYTRGWGKTLGYCIGYGSDHVVDVTWRYIWDSKKLVTQRNEVRQPVFENFLSKLNSRQAEGQTEPRKRELAVRRVCELMEMMAQEAKNHKIGWEKIGDDLGGRITGSEEWRRERGELGESGPKLLAEPIKLAPPTGPAQNYLEFNYDVITDTYSQPPEIGFSAQAFELENVQRVEETDWNMTYLCRKRGDAPGNISWHFDLKSLKKSIEKIEIRMAGIQKFEKGKAMAIACLGDSCMRLPIDCSALTIEDPKNAEILKITATLSGGEGAIGFQQAQIFRTELKRGGGARTESFSVKIWMKN,not soluble
14,MPYRKYREKKYETKYREAFKLFQEKIGITFTDEKLLIQAFTHSSYVNEHRKKPHEDNERLEFLGDAVLELTVSQYLFQKYPTMSEGELTKLRAAIVCEPSLVRFANELSFGSLVLLGKGEEMTGGRERPALLADVFEAFIGALYLDQGLETVWGFLKEIVYPKINEGAFSHVMDYKSQLQELIQRDGSGNIEYQILQEKGPAHNREFVSRVTLNNVALGLGSGKSKKEAEQQAAAEALKKLKEQL,soluble
15,MQAIAIDQFSEPEETQVEQVENPDRNEAGYEVCNQSGENLSVAIAYFDTSIDSYRSEGWWNLDQSKCQFFPNLLDSVDEVYVFAESDQTLWSGDFPFCMQEDAFEYPDANRDRCPSPAYSKGFLKVEVGDAKTWTTNLTPSQLEHHHHHH,not soluble
16,MQCGLLKHRLLKFFSTEAIMTTNQRSIKAPQTVVVKLGTSVLTGGTLALDRAHMVELARQCAELKKQGHSVVIVTSGAIAAGREHLGYPALPNAISSKQLLAAVGQSRLIQVWESLFAIYGIKIGQMLLTRADLDDRERFLNARDTINALVENGIVPVVNENDAVATNEIKVGDNDNLSALVGILCGADKLLLLTDQKGLFTADPRKDPNAQLIKEVTTIDDTLRKIAGGSGTTLGTGGMATKLQAADIARRAGIEVIIAAGRAPNVIFDSLSDEPQGTRFLALEEALENRKRWILAGPAASGDIVIDDGAVKAVQTKGSSLLAKGVVRVQGQFARGEVVRVLDKQSHLIARGIAAYSNDELAQIAGKHSKEIIDILGYDHGSEVIHRDDMVVIQE,not soluble
17,MQEAIITSTVDLTSGGCNACGLVEDTVYTLAMNGVDIPLDGLTVAHLVSAIVARNGFKQELQMDMLDDEYILYRKEDTTVTFKEAYNHLSYDNGSEKIQSKNKLEDLPKLFEQVNQILTTVFGIGTVNFIIE,not soluble
18,MQEGYREYRDIHARLNLPLLETGALVAAWSDEDLARLPAIVEQAHGNGVDDVRQVGRDEVLALEPQLAGNVLGAVRVPGEHLVDPWSAPLAYLQQALAHGAEACFDVEVLDGAFDGGEWLLHTRRGDLRASQVINCAGLFGDQLEQRLLGAASFAIHPRKGQFVVFDKAAAALLRHILLPVPNERTKGVVFTRTVFGNLLAGPTAEEQDDREQARVDSDTLQRLIDAAVERIPGLRGMPVTATYAGLRPASEKKEYRIRQVDGRNWISVGGIRSTGLTAALGIARHVYRLYQGERFHEAVREPLWPQVPNLAEHLPRDWQRPGYDEIVCHCEMVTRREILAALEGPLPAGDFGGLKRRTRACMGRCQGFYCNARVAELSAGRLAQPLATGSCHEHH,not soluble
19,MQEILIPLKEKNYKVFLGELPEIKLKQKALIISDSIVAGLHLPYLLERLKALEVRVCVIESGEKYKNFHSLERILNNAFEMQLNRHSLMIALGGGVISDMVGFASSIYFRGIDFINIPTTLLAQVDASVGGKTGINTPYGKNLIGSFHQPKAVYMDLAFLKTLEKREFQAGVAEIIKMAVCFDKNLVERLETKDLKDCLEEVIFQSVNIKAQVVVQDEKEQNIRAGLNYGHTFGHAIEKETDYERFLHGEAIAIGMRMANDLALSLGMLTLKEYERIENLLKKFDLIFHYKILDLQKFYERLFLDKKSENKTIKFILPKGVGAFEVASHIPKETIIKVLEKWH,soluble
20,MQEISFRNDILPLKDKLFRLALRITLDRAEAEDVVQDTMIRVWNKRDEWSQFESVEAYCLIVAKNLAIDRSQKKEAQNVEITPEMEEEPDANSPYDQLVHDEKMNIINRLVNELPEKQRLIMQLRDIEGESYKKIATLLNLTEEQVKVNLFRARQKVKQRYLEIDEYGL,not soluble
